Columns and labels:
[1] = molecular target: Hyperglycosylated Zika exodomain (HX), insect (Tni) cell expressed (Zika virus); assay: ELISA
[2] = molecular target: Hyperglycosylated dengue-1 exodomain (HX), insect (Tni) cell expressed (dengue virus serotype 1) (UniProt P27909); assay: ELISA
[3] = molecular target: Hyperglycosylated dengue-2 exodomain (HX), insect (Tni) cell expressed (dengue virus serotype 2) (UniProt P18356); assay: ELISA
[4] = molecular target: Hyperglycosylated dengue-3 exodomain (HX), insect (Tni) cell expressed (dengue virus serotype 3) (UniProt Q6YMS4); assay: ELISA
[5] = molecular target: Hyperglycosylated dengue-4 exodomain (HX), insect (Tni) cell expressed (dengue virus serotype 4) (UniProt P09866); assay: ELISA
[6] = molecular target: Hyperglycosylated exodomain D1 (from pCRO21), HEK293-expressed (dengue virus serotype 1) (UniProt P27909); assay: ELISA
[7] = molecular target: Hyperglycosylated exodomain D2 (from pCRO22), HEK293-expressed (dengue virus serotype 2) (UniProt P18356); assay: ELISA
[8] = molecular target: Hyperglycosylated exodomain D3 (from pCRO23), HEK293-expressed (dengue virus serotype 3) (UniProt Q6YMS4); assay: ELISA
[9] = molecular target: Hyperglycosylated exodomain D4 (from pCRO24), HEK293-expressed (dengue virus serotype 4) (UniProt P09866); assay: ELISA
[10] = molecular target: Hyperglycosylated exodomain Zika (from pCRO28), HEK293-expressed (Zika virus); assay: ELISA
[11] = molecular target: wild-type insect cell expressed Zika exodomain antigen (Zika virus); assay: ELISA
VLPs = assay: competition ELISA, 4G2 in solution phase at 10 micrograms per ml

Substance | absorbance [1] | absorbance [2] | absorbance [3] | absorbance [4] | absorbance [5] | absorbance [6] | absorbance [7] | absorbance [8] | absorbance [9] | absorbance [10] | absorbance [11] | % inhibition (VLPs)
Aalto Bioreagents anti-Zika antibody AZ1176-0302156-Lot3889 | 2 absorbance | 0.2 absorbance | 0.1 absorbance | 0.3 absorbance | 0.1 absorbance | 0.1 absorbance | 0.1 absorbance | 0.1 absorbance | 0.1 absorbance | 3.1 absorbance | 1 absorbance | 
ZKA64 (antibody) | 0.7 absorbance | 0.2 absorbance | 0.2 absorbance | 0.2 absorbance | 0.1 absorbance | 0.1 absorbance | 0.1 absorbance | 0.1 absorbance | 0.1 absorbance | 0.9 absorbance | 0.8 absorbance | 
ZKA78 (antibody) | 0 absorbance | 0 absorbance | 0 absorbance | 0 absorbance | 0 absorbance | 0 absorbance | 0 absorbance | 0 absorbance | 0 absorbance | 0 absorbance | 1.4 absorbance | 
ZV48 anti-Zika neutralizing antibody (The Native Antigen Company MAB12124) | 1.1 absorbance | 0 absorbance | 0 absorbance | 0 absorbance | 0 absorbance | 0 absorbance | 0 absorbance | 0 absorbance | 0 absorbance | 1.2 absorbance | 1.1 absorbance | 
ZV67 anti-Zika neutralizing antibody (The Native Antigen Company MAB12125) | 1.5 absorbance | 0.1 absorbance | 0.1 absorbance | 0.1 absorbance | 0.1 absorbance | 0.1 absorbance | 0 absorbance | 0 absorbance | 0 absorbance | 1.1 absorbance | 1.2 absorbance | 
fusion-loop antibody 4G2 (The Native Antigen Company AbFLAVENV-4G2) | 0.1 absorbance | 0.1 absorbance | 0.1 absorbance | 0.1 absorbance | 0.1 absorbance | 0.1 absorbance | 0.1 absorbance | 0.1 absorbance | 0.1 absorbance | 0.1 absorbance | 0.9 absorbance | 80%
